Measured values published in patent US4944948A, “EGF/Liposome gel composition and method” (Liposome Technology, Inc., priority 1989, dated 1990).
Where two headings read alike, the source gives them in different places.

Assays:
[1] = for % Lost (of total dose administered): from first order rate constants
Procedure: The amount of radioactivity remaining in the injected eye was measured for up to 96 hours after injection (until at least 90% of the initial radioactivity had disappeared). An external NaI crystal detector/ratemeter (The Nucleus Model L) was placed directly over the eye and radioactivity measured for 2 minutes and recorded on a chart recorder. […] The mean chart deflection during each recording was taken as the measurement at that time point. The first reading was taken immediately after injection ("zero time") and subsequent measurements were converted to a percentage of this initial amount.
Individual radioactivity versus time data were recorded for each animal, and the mean values for each animal group (N=4-6) were calculated.
Each plot was used to calculate first order rate constants for EGF disappearance from the eye for each formulation by a non linear least squares fitting method (RSTRIP, MicroMath, Salt Lake City, Utah).
At =A0 * e ^-kt or 1n(At)=1n (A0)-kt
where k=0.693 / t1/2, the amount of EGF lost from the eye during any day can be calculated.

[2] = 37° C., 25% human plasma/saline, 0.08 μm filter
Procedure: Liposome formulations were evaluated in vitro by release rates of 125 I-rh-EGF into the receiver compartments of percutaneous absorption cells that were continuously perfused with 25% pooled human plasma/saline.
A conventional two-chamber absorption cell, using a bath temperature of 37° C., was employed (Bronaugh). A 25 mm, 0.08 μm diameter Nuclepore (Pleasanton, Calif.) polycarbonate filter was used to separate the donor from the flow-through acceptor compartment. […] The ^125 I-rh-EGF preparation was mixed with an equal quantity of 25% pooled human plasma/isotonic saline and 200 μl aliquots were immediately applied to the donor compartments. Parafilm was used to occlude the donor compartment and prevent evaporative loss. The perfusate was collected by fraction collector into scintillation vials and mounted in a Packard TriCarg 20000. rh-EGF flux was calculated from the specific activity (DPM per μg peptide). Clearance rate half-lives were determined for individual percutaneous absorption cells as described below.
In this single phase system, it is possible to determine the concentration of peptide remaining in the donor compartment by subtracting cumulative peptide in the measured in the receiver compartment from total peptide applied to the donor compartment. […]

[3] = rabbit, subconjunctival injection

CC[C@H](C)[C@@H]1NC(=O)[C@H](Cc2ccc(O)cc2)NC(=O)CNC(=O)[C@H](C(C)C)NC(=O)[C@H](C(C)C)NC(=O)[C@@H](NC(=O)[C@H](CC(N)=O)NC(=O)[C@@H]2CSSC[C@@H]3NC(=O)[C@H](Cc4ccc(O)cc4)NC(=O)CNC(=O)[C@H](CC(=O)O)NC(=O)[C@H](Cc4c[nH]cn4)NC(=O)[C@H](CO)NC(=O)[C@H](CC(C)C)NC(=O)[C@@H]4CCCN4C(=O)[C@@H](NC(=O)[C@H](CCC(=O)O)NC(=O)[C@H](CO)NC(=O)[C@H](CC(=O)O)NC(=O)[C@H](CO)NC(=O)[C@@H](N)CC(N)=O)CSSC[C@H](NC(=O)[C@H](C(C)C)NC(=O)CNC(=O)[C@H](CC(=O)O)NC(=O)[C@H](Cc4c[nH]cn4)NC(=O)[C@H](CC(C)C)NC3=O)C(=O)N[C@@H](CCSC)C(=O)N[C@@H](Cc3ccc(O)cc3)C(=O)N[C@@H]([C@@H](C)CC)C(=O)N[C@@H](CCC(=O)O)C(=O)N[C@@H](C)C(=O)N[C@@H](CC(C)C)C(=O)N[C@@H](CC(=O)O)C(=O)N[C@@H](CCCCN)C(=O)N[C@@H](Cc3ccc(O)cc3)C(=O)N[C@@H](C)C(=O)N2)CSSC[C@@H](C(=O)N[C@@H](CCC(N)=O)C(=O)N[C@@H](Cc2ccc(O)cc2)C(=O)N[C@@H](CCCNC(=N)N)C(=O)N[C@@H](CC(=O)O)C(=O)N[C@@H](CC(C)C)C(=O)N[C@@H](CCCCN)C(=O)N[C@@H](Cc2c[nH]c3ccccc23)C(=O)N[C@@H](Cc2c[nH]c3ccccc23)C(=O)N[C@@H](CCC(=O)O)C(=O)N[C@@H](CC(C)C)C(=O)N[C@@H](CCCNC(=N)N)C(=O)O)NC(=O)[C@H](CCCNC(=N)N)NC(=O)[C@H](CCC(=O)O)NC(=O)CNC1=O [Free EGF, Epidermal Growth Factor]
% Lost (of total dose administered) ([1]; Day 1, includes initial burst): 100%
% Lost (of total dose administered) ([1]; Day 2): 0%
% Lost (of total dose administered) ([1]; Day 3): 0%
% Lost (of total dose administered) ([1]; Day 4): 0%
% Lost (of total dose administered) ([1]; Day 5): 0%
% Lost (of total dose administered) ([1]; Day 6): 0%
% Lost (of total dose administered) ([1]; Day 7): 0%
Dose remaining in the eye ([1]; after 3 hours): Less than 15%
EGF available at the conjunctival site ([1]; one day after administration): substantially no EGF was available
Half life of EGF retention in the eye [1, 3]: 1 h
Half-life of EGF disappearance from the eye [1, 3]: 1.0 h
Half life of EGF retention in the eye ([1]; rabbit, subconjunctival injection, listed as unencapsulated EGF): 1.0 h
Rate constant of EGF disappearance from the eye ([1]; rabbit, subconjunctival, fit of loglinear portion after initial burst): 0.69 h⁻¹
Half-life of EGF release in vitro (slow phase for liposomes) [2]: about 1.8 hours
